In paper PMC9135449:

Molecular target: T1, HP1043 (Helicobacter pylori 26695?) (UniProt O25684)
T1 sequence: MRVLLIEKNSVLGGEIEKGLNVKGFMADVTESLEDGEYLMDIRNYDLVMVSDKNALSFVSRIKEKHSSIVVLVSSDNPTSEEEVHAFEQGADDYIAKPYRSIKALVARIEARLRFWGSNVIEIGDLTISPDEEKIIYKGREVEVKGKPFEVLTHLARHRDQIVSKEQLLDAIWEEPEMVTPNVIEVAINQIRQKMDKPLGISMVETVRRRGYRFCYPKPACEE
Assay: EMSA
Details: 10 mM Tris-HCl pH 7.5, 40 mM KCl, 100 ug/ml BSA, 1 mM DTT, 5% glycerol, 25 ul, room temperature 30 min; 6% native PAGE in 45 mM Tris/45 mM orthoboric acid …

“GCCAAAACGCCTAAAGCCACAATAACCTTTTTCATCGTTTGTCTCCTCTACTTATCAAAATGATCTTAAAATGATACAATTACAAGTTTAAGTTTTGCTTAAAAAATGAAGTGAAAATAAGAGAAATAAATATGATTTTATACATTCATATCCCCTTTTGTGAAAATAAATGCGGTTATTGCGCTTTCAA (double strand) [Php1227 190-bp promoter probe]” was tested, and the binding was “binds”.
